Laboratory results as given in publication PMC11369174, “Proteome-scale characterisation of motif-based interactome rewiring by disease mutations” (Molecular Systems Biology, 2024).
Several values for one entry are separate records, joined by “and”; a condition that tells them apart may be missing. Equal values may be shown once.

Tests used:
[1] = molecular target: MAP1LC3B ATG8 domain (human); test: ITC; peptide titrated in tenfold excess in 16 injections against the protein domain; 50 mM sodium phosphate buffer pH 7.4, 1 mM DTT; iTC200
[2] = molecular target: MAP1LC3B ATG8 domain (human); test: fluorescence polarisation; displacement: unlabelled peptide titrated onto a complex of FITC-labelled peptide (10 nM) and protein domain (1-2x KD); 50 mM sodium phosphate buffer pH 7.4 (CASK: plus 100 mM NaCl); KD calculated from IC50; technical triplets
[3] = molecular target: ABL1 SH3 (human) (UniProt P00519); test: as above
[4] = molecular target: FITC-3BP2; test: fluorescence polarisation; saturation binding: dilution series of the protein domain added to 10 nM FITC-labelled peptide; 50 mM sodium phosphate pH 7.4, 0.05% Tween (protein dialysed in 50 mM sodium phosphate with 1 mM DTT; CASK kinase domain with 100 mM NaCl in addition); quadratic fit; technical triplets
[5] = molecular target: FITC-TCF3; test: as above
[6] = molecular target: FITC-PER2; test: as above
[7] = molecular target: MAP1LC3B ATG8 domain (human) (UniProt Q9GZQ8); test: ITC; peptide titrated in tenfold excess in 16 injections against the protein domain; 50 mM sodium phosphate pH 7.4, 1 mM DTT; iTC200; wild-type in technical duplicate, mutant in technical triplets; one line of constants for each repeat
[8] = molecular target: importin subunit α-3 (KPNA4) ARM domain; test: fluorescence polarisation displacement; conditions: major pocket

Sequence of ABL1 SH3 domain (P00519 61-121): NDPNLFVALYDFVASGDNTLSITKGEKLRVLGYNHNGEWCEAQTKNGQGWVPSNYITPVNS
Sequence of ABL1 SH3 (human) (P00519 61-121): as above
Sequence of CREBBP KIX domain (Q92793 587-666): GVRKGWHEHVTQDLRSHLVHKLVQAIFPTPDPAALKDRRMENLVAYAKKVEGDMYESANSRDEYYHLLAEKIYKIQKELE

A Kd [1] of 20 to 100 µM and a Kd [2] of 3.12 µM were found for BRCA2_(292-307) wild-type peptide in this work.

A Kd [3] of 560 µM was found for TP53 64-80 P72R peptide in this work.

A Kd [2] of 1.6 µM was found for BUB1_(486-501) S492F peptide in this work.

A Kd [2] of 0.5 µM was found for SQSTM1 334-349 wild-type peptide in this work.

A Kd [4] of 3.7 µM was found for “ABL1 SH3 domain (from UniProt P00519 61-121) (domain or fragment)” in this work.

A Kd [5] of 35 µM was found for “CREBBP KIX domain (from UniProt Q92793 587-666) (domain or fragment)” in this work.

A Kd [2] of 0.6 µM was found for SQSTM1 334-349 P348L peptide in this work.

A Kd [6] of 3.4 µM was found for “Peripheral plasma membrane protein CASK (CASK) kinase domain (from UniProt O14936 12-276) (domain or fragment)” in this work.

A Kd [1] of 2 µM and a Kd [2] of 0.52 µM were found for “BRCA2_(292-307) T298I/V299L/V300R peptide” in this work.

In the case of “BRCA2 292-307 peptide, mutant T298I/V299L/V300R”, the stoichiometry N [7] is reported as 0.744 and 0.685 and 0.649.

In the case of BRCA2 292-307 peptide, wild-type, the Kd [7] is reported as 109 µM and 63.7 µM and 18.2 µM and the stoichiometry N [7] is reported as 0.7 and 0.684.

A Kd [8] of 75 µM was found for “ABRAXAS1_(349-364) wild-type peptide R361Q” in this work.

A Kd [2] of 7 µM was found for BUB1_(486-501) wild-type peptide in this work.
